Where two headings read alike, the source gives them in different places.
Columns and labels:
[1] = biological target: SARS-CoV-2 S ectodomain, ancestral (S-2P) (SARS-CoV-2) (UniProt P0DTC2)
[2] = biological target: SARS-CoV-2 S ectodomain, ancestral (S-2P) (SARS-CoV-2) (UniProt P0DTC2); remark: listed apart in the source
[3] = biological target: SARS-CoV-2 S Ancestral (S-2P ectodomain) (SARS-CoV-2 (ancestral)) (UniProt P0DTC2); experiment: protein ELISA
[4] = biological target: SARS-CoV-2 S ectodomain, ancestral (S-2P) (SARS-CoV-2) (UniProt P0DTC2); experiment: ELISA on coated S

C121 (antibody)
IC50 (read off the curve) [1]: 0.3 mg/L
IC50 (read off the curve) [2]: 1 mg/L
EC50 [3]: 0.0187 mg/L

CV3-25 (antibody)
EC50 [4]: 0.0139 mg/L

S2P6 (antibody)
EC50 [4]: 0.0379 mg/L
